Data: patent US20130263324, “METHODS FOR PRODUCING A COMPLEX TRANSGENIC TRAIT LOCUS” (E.I. du Pont de Nemours and Company, published 2013)

Tests used:
[1] = system: MHP77-3 meganuclease (engineered I-CreI); experiment: cell_activity; details: maize embryos
[2] = molecular target: T1, MHP55-2 meganuclease (engineered I-CreI); experiment: cell_activity; maize embryos; details: tags: SV40 NLS
T1 chain: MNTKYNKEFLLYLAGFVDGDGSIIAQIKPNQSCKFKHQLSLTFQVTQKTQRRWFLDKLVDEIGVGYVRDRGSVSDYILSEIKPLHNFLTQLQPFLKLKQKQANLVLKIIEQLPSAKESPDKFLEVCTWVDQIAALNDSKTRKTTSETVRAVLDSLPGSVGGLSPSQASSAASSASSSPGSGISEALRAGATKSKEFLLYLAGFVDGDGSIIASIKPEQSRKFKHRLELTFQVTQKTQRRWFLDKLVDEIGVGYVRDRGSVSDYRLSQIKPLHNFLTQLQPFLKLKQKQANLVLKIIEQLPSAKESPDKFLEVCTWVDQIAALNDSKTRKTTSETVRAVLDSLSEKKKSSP
Method: (§1) Trait gene cassettes can be introduced at other target sites of the complex trait locus through homologous recombination mediated by engineered meganucleases. Engineered meganucleases were designed to direct double strand breaks a two other MHP target sites, MHP55 (SEQ ID NO: 72) and MHP77 (SEQ ID NO: 74) within the complex trait locus. Target site modification was determined using qPCR. The probe sequence for qPCR screening of the MHP55 target site was […] (SEQ ID NO: 115), the MHPTS55_Forward_MGBprimer sequence was […] (SEQ ID NO: 116), and MHP55_reverse_MGB primer was […] (SEQ ID NO: 117). The probe sequence for qPCR of MHP77 target site was […] (SEQ ID NO: 118), the MHPTS77_Forward_MGB primer sequence was […] (SEQ ID NO: 119), and MHP77_reverse_MGB primer was […] (SEQ ID NO: 120). The trait gene cassettes encoding MHP14, MHP55 and MHP77 were introduced into maize somatic embryos via transformation techniques using bombardment and following bombardment, embryos were incubated on 560P (maintenance medium) for 48 hours […].

[3] = molecular target: T2, MHP14+ meganuclease (engineered I-CreI); experiment: cell_activity; maize embryos; details: tags: SV40 NLS
T2 chain: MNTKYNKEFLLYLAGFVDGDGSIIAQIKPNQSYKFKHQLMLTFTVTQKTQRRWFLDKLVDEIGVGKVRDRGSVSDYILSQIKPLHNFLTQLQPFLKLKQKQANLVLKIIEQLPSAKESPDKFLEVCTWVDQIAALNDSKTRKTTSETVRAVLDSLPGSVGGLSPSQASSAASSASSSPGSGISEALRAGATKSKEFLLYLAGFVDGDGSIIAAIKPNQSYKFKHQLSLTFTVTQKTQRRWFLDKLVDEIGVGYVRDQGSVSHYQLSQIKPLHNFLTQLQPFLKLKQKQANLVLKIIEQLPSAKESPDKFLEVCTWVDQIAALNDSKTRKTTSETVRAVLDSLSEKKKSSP
Method: as §1

[4] = molecular target: T3, MHP77 meganuclease (engineered I-CreI); experiment: cell_activity; maize embryos; details: tags: SV40 NLS
T3 chain: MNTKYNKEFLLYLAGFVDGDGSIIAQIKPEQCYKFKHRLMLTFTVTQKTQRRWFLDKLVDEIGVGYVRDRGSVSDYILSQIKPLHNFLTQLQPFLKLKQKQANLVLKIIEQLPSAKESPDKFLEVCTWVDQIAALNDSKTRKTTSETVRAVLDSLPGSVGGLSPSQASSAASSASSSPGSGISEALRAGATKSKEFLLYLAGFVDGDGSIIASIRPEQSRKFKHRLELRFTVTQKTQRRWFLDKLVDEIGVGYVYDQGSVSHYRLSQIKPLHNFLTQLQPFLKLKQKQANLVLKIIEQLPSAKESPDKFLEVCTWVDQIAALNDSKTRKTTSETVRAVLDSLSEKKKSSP
Method: as §1

GGGCGGTATGTATGTCATACTA (double strand) [MHP77 target]
activity (% target site mutation) [1]: 11

B1: MHP55 target (dsDNA)
DNA 1: CCAACCGTCGTGAGACCTGCCC
DNA 2: GGGCAGGTCTCACGACGGTTGG
activity [2]: 5 % target site mutation

B2: MHP14 target (dsDNA)
DNA 1: CAAACAGATTCACGTCAGATTT
DNA 2: AAATCTGACGTGAATCTGTTTG
activity [3]: 40 % target site mutation

B3: MHP77 target (dsDNA)
DNA 1: GGGCGGTATGTATGTCATACTA
DNA 2: TAGTATGACATACATACCGCCC
activity [4]: 1 % target site mutation
